Measurements taken from US20240117018A1.

Tests used:
Experiment in all cases: cell-based or functional assay
[1] = molecular target: HIV-1 Env of pseudovirus Q769.d22 (HIV-1)
[2] = molecular target: HIV-1 Env of pseudovirus Du156.12 (HIV-1)
[3] = molecular target: HIV-1 Env of pseudovirus 7030102001E5(Rev-) (HIV-1)
[4] = molecular target: HIV-1 Env of pseudovirus ZM109F.PB4 (HIV-1)
[5] = molecular target: HIV-1 Env of pseudovirus Ce1086_B2 (HIV-1)
[6] = molecular target: HIV-1 Env of pseudovirus THRO4156.18 (HIV-1)
[7] = molecular target: HIV-1 Env of pseudovirus HIV-16055-2.3 (HIV-1)
[8] = molecular target: HIV-1 Env of pseudovirus QH0692.42 (HIV-1)
[9] = molecular target: HIV-1 Env of pseudovirus 1012_11_TC21_3257 (HIV-1)
[10] = molecular target: HIV-1 Env of pseudovirus HIV-0013095-2.11 (HIV-1)
[11] = molecular target: HIV-1 Env of pseudovirus T250-4 (HIV-1)
[12] = molecular target: HIV-1 Env of pseudovirus Du172.17 (HIV-1)
[13] = molecular target: HIV-1 Env of pseudovirus 1394C9G1(Rev-) (HIV-1)
[14] = molecular target: HIV-1 Env of pseudovirus TRJO4551.58 (HIV-1)
[15] = molecular target: HIV-1 Env of pseudovirus 6240_08_TA5_4622 (HIV-1)
[16] = molecular target: HIV-1 Env of pseudovirus 0260.v5.c36 (HIV-1)
[17] = molecular target: HIV-1 Env of pseudovirus ZM214M.PL15 (HIV-1)
[18] = molecular target: HIV-1 Env of pseudovirus ZM249M.PL1 (HIV-1)
[19] = molecular target: HIV-1 Env of pseudovirus HIV-001428-2.42 (HIV-1)
[20] = molecular target: HIV-1 Env of pseudovirus Ce704809221_1B3 (HIV-1)
[21] = molecular target: HIV-1 Env of pseudovirus Q23.17 (HIV-1)
[22] = molecular target: HIV-1 Env of pseudovirus CNE58 (HIV-1)
[23] = molecular target: HIV-1 Env of pseudovirus WEAU_d15_410_787 (HIV-1)
[24] = molecular target: HIV-1 Env of pseudovirus 1006_11_C3_1601 (HIV-1)
[25] = molecular target: HIV-1 Env of pseudovirus HIV-16845-2.22 (HIV-1)
[26] = molecular target: HIV-1 Env of pseudovirus 1056_10_TA11_1826 (HIV-1)
[27] = molecular target: HIV-1 Env of pseudovirus Ce1176_A3 (HIV-1)
[28] = molecular target: HIV-1 Env of pseudovirus 3365.v2.c2 (HIV-1)
[29] = molecular target: HIV-1 Env of pseudovirus CAP210.2.00.E8 (HIV-1)
[30] = molecular target: HIV-1 Env of pseudovirus CNE8 (HIV-1)
[31] = molecular target: HIV-1 Env of pseudovirus Ce0393_C3 (HIV-1)
[32] = molecular target: HIV-1 Env of pseudovirus CNE21 (HIV-1)
[33] = molecular target: HIV-1 Env of pseudovirus 249M B10 (HIV-1)
[34] = molecular target: HIV-1 Env of pseudovirus 246F C1G (HIV-1)
[35] = molecular target: HIV-1 Env of pseudovirus RHPA4259.7 (HIV-1)
[36] = molecular target: HIV-1 Env of pseudovirus Ce703010054_2A2 (HIV-1)

**Q.** Which results are given for N49P7 (antibody)?
**A.** IC50 [1]: 0.025 µg/mL; IC80 [1]: 0.111 µg/mL; MPI [1]: 100; IC50 [2]: 0.032 µg/mL; IC80 [2]: 0.086 µg/mL; MPI [2]: 100; IC50 [3]: 0.184 µg/mL; IC80 [3]: 0.832 µg/mL; MPI [3]: 100; IC50 [4]: 0.034 µg/mL; IC80 [4]: 0.153 µg/mL; MPI [4]: 100; IC50 [5]: 0.089 µg/mL; IC80 [5]: 0.568 µg/mL; MPI [5]: 100; IC50 [6]: 2.34 µg/mL; IC80 [6]: 12.4 µg/mL; MPI [6]: 99; IC50 [7]: 0.057 µg/mL; IC80 [7]: 0.28 µg/mL; MPI [7]: 100; IC50 [8]: 0.663 µg/mL; IC80 [8]: 2.41 µg/mL; MPI [8]: 100; IC50 [9]: 0.046 µg/mL; IC80 [9]: 0.125 µg/mL; MPI [9]: 100; IC50 [10]: 0.073 µg/mL; IC80 [10]: 0.253 µg/mL; MPI [10]: 100; IC50 [11]: 2.07 µg/mL; IC80 [11]: 21.4 µg/mL; MPI [11]: 91; IC50 [12]: 0.102 µg/mL; IC80 [12]: 0.668 µg/mL; MPI [12]: 100; IC50 [13]: 3.84 µg/mL; IC80 [13]: 21.1 µg/mL; MPI [13]: 94; IC50 [14]: 0.104 µg/mL; IC80 [14]: 0.351 µg/mL; MPI [14]: 100; IC50 [15]: 0.457 µg/mL; IC80 [15]: 1.73 µg/mL; MPI [15]: 100; IC50 [16]: 0.354 µg/mL; IC80 [16]: 0.884 µg/mL; MPI [16]: 100; IC50 [17]: 0.213 µg/mL; IC80 [17]: 0.953 µg/mL; MPI [17]: 100; IC50 [18]: 0.039 µg/mL; IC80 [18]: 0.134 µg/mL; MPI [18]: 100; IC50 [19]: 0.006 µg/mL; IC80 [19]: 0.02 µg/mL; MPI [19]: 100; IC50 [20]: 0.141 µg/mL; IC80 [20]: 0.932 µg/mL; MPI [20]: 100; IC50 [21]: 0.052 µg/mL; IC80 [21]: 0.21 µg/mL; MPI [21]: 100; IC50 [22]: 0.029 µg/mL; IC80 [22]: 0.067 µg/mL; MPI [22]: 100; IC50 [23]: 0.045 µg/mL; IC80 [23]: 0.117 µg/mL; MPI [23]: 100; IC50 [24]: 0.044 µg/mL; IC80 [24]: 0.158 µg/mL; MPI [24]: 100; IC50 [25]: 0.95 µg/mL; IC80 [25]: 3.94 µg/mL; MPI [25]: 100; IC50 [26]: 0.141 µg/mL; IC80 [26]: 0.468 µg/mL; MPI [26]: 100; IC50 [27]: 0.204 µg/mL; IC80 [27]: 0.589 µg/mL; MPI [27]: 100; IC50 [28]: 0.07 µg/mL; IC80 [28]: 0.186 µg/mL; MPI [28]: 100; IC50 [29]: 1.82 µg/mL; IC80 [29]: 6.49 µg/mL; MPI [29]: 100; IC50 [30]: 0.037 µg/mL; IC80 [30]: 0.125 µg/mL; MPI [30]: 100; IC50 [31]: 0.195 µg/mL; IC80 [31]: 0.802 µg/mL; MPI [31]: 100; IC50 [32]: 0.756 µg/mL; IC80 [32]: 6.02 µg/mL; MPI [32]: 97; IC50 [33]: 0.081 µg/mL; IC80 [33]: 0.377 µg/mL; MPI [33]: 100; IC50 [34]: 0.094 µg/mL; IC80 [34]: 0.255 µg/mL; MPI [34]: 100; IC50 [35]: 0.083 µg/mL; IC80 [35]: 0.246 µg/mL; MPI [35]: 100; IC50 [36]: 0.132 µg/mL; IC80 [36]: 0.466 µg/mL; MPI [36]: 100
